Biological target: the molecule itself
Assay: non-reducing SDS-PAGE and immunoblot

B1: PRDX4, murine islets (enzyme, mouse (endogenous in murine islets), UniProt O08807 41-274, looked up)
chain: LESDERFRTRENECHFYAGGQVYPGEASRVSVADHSLHLSKAKISKPAPYWEGTAVINGEFKELKLTDYRGKYLVFFFYPLDFTFVCPTEIIAFGDRIEEFKSINTEVVACSVDSQFTHLAWINTPRRQGGLGPIRIPLLSDLNHQISKDYGVYLEDSGHTLRGLFIIDDKGVLRQITLNDLPVGRSVDETLRLVQAFQYTDKHGEVCPAGWKPGSETIIPDPAGKLKYFDKLN
stoichiometry N: 2

From publication doi:10.1101/699132 (bioRxiv, 2020)
